Data from IntAct's records for PubMed 20972448.

Target: xpo1_mouse Xpo1 (UniProt Q6P5F9)
UniProt Q6P5F9, sequence (Q6P5F9 whole entry): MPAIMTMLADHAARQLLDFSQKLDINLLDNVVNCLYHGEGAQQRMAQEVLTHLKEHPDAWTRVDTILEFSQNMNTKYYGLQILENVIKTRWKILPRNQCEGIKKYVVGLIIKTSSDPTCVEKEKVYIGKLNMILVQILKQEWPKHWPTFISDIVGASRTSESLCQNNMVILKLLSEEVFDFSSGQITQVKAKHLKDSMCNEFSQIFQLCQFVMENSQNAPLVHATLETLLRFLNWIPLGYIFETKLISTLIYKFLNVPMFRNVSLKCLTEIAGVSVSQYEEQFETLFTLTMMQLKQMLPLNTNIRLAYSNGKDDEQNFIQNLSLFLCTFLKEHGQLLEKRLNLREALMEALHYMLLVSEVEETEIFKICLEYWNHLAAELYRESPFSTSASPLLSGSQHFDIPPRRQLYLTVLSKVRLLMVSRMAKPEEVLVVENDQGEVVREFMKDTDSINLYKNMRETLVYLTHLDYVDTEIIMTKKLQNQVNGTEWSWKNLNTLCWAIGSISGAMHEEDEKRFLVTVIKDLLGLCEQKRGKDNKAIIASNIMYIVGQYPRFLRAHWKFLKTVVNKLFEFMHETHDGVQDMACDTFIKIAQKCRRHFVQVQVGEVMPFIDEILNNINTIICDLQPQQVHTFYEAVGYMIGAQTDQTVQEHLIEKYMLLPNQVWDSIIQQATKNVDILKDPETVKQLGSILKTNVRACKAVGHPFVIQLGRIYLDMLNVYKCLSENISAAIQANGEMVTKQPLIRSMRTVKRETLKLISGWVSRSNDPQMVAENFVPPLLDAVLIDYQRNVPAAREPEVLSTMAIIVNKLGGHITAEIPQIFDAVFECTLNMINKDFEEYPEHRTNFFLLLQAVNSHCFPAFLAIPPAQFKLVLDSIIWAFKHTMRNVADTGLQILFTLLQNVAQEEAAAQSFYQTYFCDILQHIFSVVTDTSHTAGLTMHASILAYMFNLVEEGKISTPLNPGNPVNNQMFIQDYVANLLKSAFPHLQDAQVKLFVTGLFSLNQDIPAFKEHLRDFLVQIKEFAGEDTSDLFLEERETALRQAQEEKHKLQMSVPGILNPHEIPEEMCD

With “cAMP-dependent protein kinase inhibitor alpha (Homo sapiens) (from UniProt P61925) S35L” the “effect of a mutation on the interaction” value was “increasing interaction”.
